pKd: −log10 of the molar value.
Key:
[1] = molecular target: PEAK3 tandem-pS69 peptide (residues 54-74) (human); assay: ITC; binary; peptide in the cell (20 µM, or 16.8 µM after a buffer titration), protein in the syringe; 25 °C, 20 mM HEPES pH 7.4, 150 mM NaCl, 1 mM TCEP; single binding site model
[2] = molecular target: PEAK3^tandem-pS69 peptide (residues 54–74, phosphorylated at S69) (human); assay: ITC; binary; peptide (20 μM) in the cell, protein in the syringe (14-3-3ɣ 200 μM; CrkII^NSH3 140 or 400 μM); 25 °C, 20 mM HEPES pH 7.4, 150 mM NaCl, 1 mM TCEP; single site model
[3] = molecular target: PEAK3tandem-pS69 peptide (residues 54-74) (human); assay: ITC; 25 °C, peptide (20 µM) in the cell, protein in the syringe, sequential titrations; 20 mM HEPES pH 7.4, 150 mM NaCl, 1 mM TCEP; single binding site model
[4] = molecular target: PEAK3 SH2-pY peptide 23-29 (Homo sapiens) (UniProt Q6ZS72); assay: ITC; settings: cited from earlier work
Sequence of PEAK3 SH2-pY peptide 23-29 (Homo sapiens) (Q6ZS72 whole entry, looked up, tested part not stated): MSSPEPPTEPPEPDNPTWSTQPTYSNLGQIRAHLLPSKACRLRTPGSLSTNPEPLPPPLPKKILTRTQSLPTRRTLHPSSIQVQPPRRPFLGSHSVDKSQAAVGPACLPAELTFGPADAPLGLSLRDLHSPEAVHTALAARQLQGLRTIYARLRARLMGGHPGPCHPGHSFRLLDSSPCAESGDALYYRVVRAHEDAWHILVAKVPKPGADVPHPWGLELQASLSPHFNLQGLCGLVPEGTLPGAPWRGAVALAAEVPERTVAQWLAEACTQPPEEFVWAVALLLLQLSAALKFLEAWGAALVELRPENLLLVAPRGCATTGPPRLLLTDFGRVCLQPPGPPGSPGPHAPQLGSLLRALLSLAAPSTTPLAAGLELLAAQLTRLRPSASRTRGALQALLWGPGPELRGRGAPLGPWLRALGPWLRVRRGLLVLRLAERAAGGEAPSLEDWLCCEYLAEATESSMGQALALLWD

[5] = molecular target: PEAK3 tandem-pS69 : 14-3-3γ (K50E) complex (human); assay: ITC; ternary; CrkII NSH3 in the syringe titrated into the peptide:14-3-3γ complex left in the cell (16.8 µM) after the first titration; 25 °C, 20 mM HEPES pH 7.4, 150 mM NaCl, 1 mM TCEP; single binding site model
[6] = molecular target: PEAK3^(tandem, 54–74)pS69:14-3-3γ complex (human); assay: ITC; ternary, sequential; CrkII^NSH3 (400 μM, syringe) titrated into the peptide (16.8 µM) left in the cell after a first titration with 14-3-3ɣ; 25 °C, 20 mM HEPES pH 7.4, 150 mM NaCl, 1 mM TCEP
[7] = molecular target: full length PEAK3 (PEAK3^FL, residues 1-473), from insect cells, phosphorylated by Src (human) (UniProt Q6ZS72); assay: SPR; biotinylated PEAK proteins (with or without Src phosphorylation) captured with a biotin CAPture kit; Grb2 FL, Grb2 SH2, CrkII SH2, CrkII FL monomer or dimer as analytes; Biacore 8K+, 20 °C, HBS-TP with NaCl raised to 500 mM; 1 M NaCl regeneration; steady state
Sequence of full length PEAK3 (PEAK3^FL, residues 1-473), from insect cells, phosphorylated by Src (human) (Q6ZS72 whole entry, the tested form may be a part): as the sequence (Q6ZS72 whole entry, looked up, tested part not stated) above

[8] = molecular target: PEAK2^IDR1 (residues 802-1406), from insect cells, phosphorylated by Src (human) (UniProt Q86YV5); assay: as above
Sequence of PEAK2^IDR1 (residues 802-1406), from insect cells, phosphorylated by Src (human) (Q86YV5 802-1406): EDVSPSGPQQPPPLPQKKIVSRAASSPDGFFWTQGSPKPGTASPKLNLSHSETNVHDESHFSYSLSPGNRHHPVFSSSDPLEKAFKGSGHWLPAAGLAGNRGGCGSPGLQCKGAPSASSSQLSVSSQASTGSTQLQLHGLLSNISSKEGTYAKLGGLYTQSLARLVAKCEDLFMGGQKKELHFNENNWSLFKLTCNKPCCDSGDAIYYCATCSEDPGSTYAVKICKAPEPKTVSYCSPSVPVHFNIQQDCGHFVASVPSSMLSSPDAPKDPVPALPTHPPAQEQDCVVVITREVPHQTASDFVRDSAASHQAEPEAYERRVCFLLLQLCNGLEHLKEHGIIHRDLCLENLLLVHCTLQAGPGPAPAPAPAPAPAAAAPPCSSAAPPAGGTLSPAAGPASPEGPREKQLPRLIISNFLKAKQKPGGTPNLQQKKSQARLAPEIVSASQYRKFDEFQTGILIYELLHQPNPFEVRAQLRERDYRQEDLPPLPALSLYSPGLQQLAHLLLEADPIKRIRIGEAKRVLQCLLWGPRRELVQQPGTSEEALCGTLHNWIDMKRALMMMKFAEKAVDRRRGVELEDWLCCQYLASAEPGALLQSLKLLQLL

[9] = molecular target: PEAK1^IDR1 (residues 1082-1746), from insect cells, phosphorylated by Src (human) (UniProt Q9H792); assay: as above
Sequence of PEAK1^IDR1 (residues 1082-1746), from insect cells, phosphorylated by Src (human) (Q9H792 1082-1746): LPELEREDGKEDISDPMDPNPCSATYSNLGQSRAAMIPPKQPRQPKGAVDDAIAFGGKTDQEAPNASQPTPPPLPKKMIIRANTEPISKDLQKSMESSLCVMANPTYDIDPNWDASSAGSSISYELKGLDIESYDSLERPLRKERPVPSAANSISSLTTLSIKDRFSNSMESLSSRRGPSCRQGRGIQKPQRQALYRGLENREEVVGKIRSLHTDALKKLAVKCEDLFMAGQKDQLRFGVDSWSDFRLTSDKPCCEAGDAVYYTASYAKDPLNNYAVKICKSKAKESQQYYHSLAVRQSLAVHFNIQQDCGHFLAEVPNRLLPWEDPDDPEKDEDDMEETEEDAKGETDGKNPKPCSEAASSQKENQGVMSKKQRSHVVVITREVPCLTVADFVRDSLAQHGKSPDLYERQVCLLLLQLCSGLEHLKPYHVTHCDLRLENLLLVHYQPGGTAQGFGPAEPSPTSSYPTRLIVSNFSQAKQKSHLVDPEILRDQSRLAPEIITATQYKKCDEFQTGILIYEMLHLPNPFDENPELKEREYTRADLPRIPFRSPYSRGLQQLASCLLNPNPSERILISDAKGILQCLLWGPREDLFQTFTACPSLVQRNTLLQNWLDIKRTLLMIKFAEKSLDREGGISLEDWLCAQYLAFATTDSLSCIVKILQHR

14-3-3η 1-246 = 14-3-3η 1-246 (UniProt Q04917); assay: SPR, immobilized 14-3-3η
14-3-3ε 1-255 = 14-3-3ε 1-255 (UniProt P62258); assay: SPR, immobilized 14-3-3ε
[10] = molecular target: 14-3-3σ (Methods: 14-3-3ς, with an accession that is 14-3-3ζ) 1-245; assay: SPR, immobilized 14-3-3σ
14-3-3γ 1-247 = 14-3-3γ 1-247 (UniProt P61981); assay: SPR, immobilized 14-3-3γ; settings: reference: non-phosphorylated PEAK1tandem peptide; sites T1165
[11] = molecular target: 14-3-3ε (residues 1-255) (human) (UniProt P62258); assay: SPR; 14-3-3 isoforms amine coupled to a CM5 chip, tandem peptides as analytes (10 µM-10 nM for PEAK3 tandem-pS69, 20 µM-20 nM for all others); Biacore S200, 20 °C, HBS-TP; steady state, 1:1 model
Sequence of 14-3-3ε (residues 1-255) (human) (P62258 whole entry, the tested form may be a part, canonical isoform): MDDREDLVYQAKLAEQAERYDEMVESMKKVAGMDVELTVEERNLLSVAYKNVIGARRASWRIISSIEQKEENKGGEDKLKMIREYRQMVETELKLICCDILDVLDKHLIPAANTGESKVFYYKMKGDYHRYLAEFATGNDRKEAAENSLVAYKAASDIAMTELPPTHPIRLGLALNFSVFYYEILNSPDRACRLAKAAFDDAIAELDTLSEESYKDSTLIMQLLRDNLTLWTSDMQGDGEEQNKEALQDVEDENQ

[12] = molecular target: 14-3-3γ (residues 1-247) (human); assay: as above
[13] = molecular target: 14-3-3η (residues 1-246) (human); assay: as above
14-3-3γ (human) = assay: SPR; Biacore S200; 14-3-3 isoforms amine coupled to CM5, peptides injected (10 µM–10 nM for PEAK3^tandem-pS69, 20 µM–20 nM for other peptides); 20 °C, HBS-TP; steady-state 1:1 fit
[14] = molecular target: PEAK2^IDR1 (human PEAK2 residues 802–1406) (human) (UniProt Q86YV5); assay: SEC-MALS; purified PEAK2^IDR1:CrkII^FL dimer complex (170 μg), Superdex 200 Increase 10/300, 20 mM HEPES pH 7.5, 150 mM NaCl, 1 mM TCEP
Sequence of PEAK2^IDR1 (human PEAK2 residues 802–1406) (human) (Q86YV5 802-1406): as the sequence (Q86YV5 802-1406) above

[15] = molecular target: full length CrkII, dimer (CrkII^FL dimer) (human) (UniProt P46108); assay: SEC; single purified proteins on Superdex 200 (purification and re-runs), 20 mM HEPES pH 7.5–8.5, 150 mM NaCl, 1 mM TCEP; oligomeric state
[16] = molecular target: PEAK1^IDR1 (residues 1082-1746), from insect cells (human) (UniProt Q9H792); assay: SPR; biotinylated PEAK proteins (with or without Src phosphorylation) captured with a biotin CAPture kit; Grb2 FL, Grb2 SH2, CrkII SH2, CrkII FL monomer or dimer as analytes; Biacore 8K+, 20 °C, HBS-TP with NaCl raised to 500 mM; 1 M NaCl regeneration; steady state
Sequence of PEAK1^IDR1 (residues 1082-1746), from insect cells (human) (Q9H792 1082-1746): as the sequence (Q9H792 1082-1746) above

[17] = reference: non-phosphorylated PEAK1tandem peptide, sites T1165
[18] = reference: non-phosphorylated PEAK3tandem peptide, sites S69

Sequence of PEAK2 tandem-pS826 peptide (residues 812-831) (peptide): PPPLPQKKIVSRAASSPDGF

14-3-3γ (gamma) (K50E) (natural protein)
pKd [1]: 5.22
stoichiometry N [1]: 0.726

14-3-3γ (natural protein)
pKd [2]: 6.89
pKd [3]: 6.90

CrkII (from UniProt P46108)
pKd [4]: 5.11

CrkII N-terminal SH3 domain (CrkII^NSH3, residues 134-191) (from UniProt P46108-1 134-191) (domain or fragment)
pKd [5]: 5.49
stoichiometry N [5]: 0.69

CrkII NSH3 domain (CrkII^NSH3, residues 134–191) (from UniProt P46108-1 134-191) (domain or fragment)
pKd [6]: 5.44

CrkII SH2 domain (CrkII^SH2, residues 6-120) (from UniProt P46108-1 6-120) (domain or fragment)
pKd [7]: 4.32
pKd [8]: 4.68
pKd [9]: 4.90

PEAK1 1152-1171 (from UniProt Q9H792) PEAK1tandem-pT1165 peptide
binding against the reference (14-3-3η 1-246; [17]): stronger
binding against the reference (14-3-3ε 1-255; [17]): stronger
binding against the reference [10, 17]: stronger
binding against the reference (14-3-3γ 1-247): stronger

PEAK1 tandem peptide, non-phosphorylated (residues 1152-1171)
pKd [11]: < 4.00

PEAK1 tandem-pT1165 peptide (residues 1152-1171)
pKd [11]: 5.27

PEAK2 tandem peptide, non-phosphorylated (residues 812-831)
pKd [12]: < 4.00
pKd [13]: < 4.00
pKd [11]: < 4.00

PEAK2 tandem-pS826 peptide (residues 812-831)
pKd [12]: 5.87
pKd [13]: 5.71
pKd [11]: 5.13

PEAK3 54-74 (from UniProt Q6ZS72) PEAK3tandem-pS69 peptide
binding against the reference (14-3-3η 1-246; [18]): stronger
binding against the reference (14-3-3ε 1-255; [18]): stronger
binding against the reference [10, 18]: stronger

PEAK3 tandem peptide, non-phosphorylated (residues 54-74)
pKd [11]: < 4.00

PEAK3 tandem-pS69 peptide (residues 54-74)
pKd [11]: 6.11

PEAK3^tandem peptide, non-phosphorylated (residues 54–74; Ac-…-NH2)
pKd (14-3-3γ (human)): < 5.00

full length CrkII, dimer (CrkII^FL dimer) (from UniProt P46108-1 1-304) (natural protein)
stoichiometry N (CrkII chains per PEAK2 chain (2:2)) [14]: 1
percent of the isolated protein that is dimer [15]: 10%

full length Grb2 (Grb2^FL, residues 1-217) (from UniProt P62993-1 1-217) (natural protein)
pKd [16]: < 4.30
pKd [9]: 5.37

Source: publication PMC10279719
